Interaction score data for five molecules are collected here from PMC10397247.

Like-named read-outs stand apart in the source and are kept apart here.

What all share (test): two-hybrid library CCmax;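 also: natural log of median RNA to DNA barcode read ratio; higher means stronger binding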
One test addresses T1, 4H2648-AA.
T1 chain: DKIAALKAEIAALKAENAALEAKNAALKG
The settings on record: mean of both orientations.

Another test has as its target T2, 4H171-AA.
T2 chain: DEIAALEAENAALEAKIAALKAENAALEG
The settings on record: mean of both orientations.

The next test has as its target T3, 4H384-AA.
T3 chain: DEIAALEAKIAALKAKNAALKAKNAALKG
The settings on record: mean of both orientations.

A further test deals with T4, 4H3753-AA.
T4 chain: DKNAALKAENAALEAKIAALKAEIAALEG
To be noted: mean of both orientations.

The next test concerns the target T5, 4H2389-AA.
T5 chain: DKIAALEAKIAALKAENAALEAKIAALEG
The settings on record: mean of both orientations.

The target in a further test is T6, 4H1594-AA.
T6 chain: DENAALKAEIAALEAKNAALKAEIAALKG
To be noted: mean of both orientations.

Another test deals with T7, 4H3413-AA.
T7 chain: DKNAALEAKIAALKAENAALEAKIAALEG
To be noted: mean of both orientations.

For another test, the target named is T8, 4H2198-AA.
T8 chain: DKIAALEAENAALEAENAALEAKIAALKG
The settings on record: mean of both orientations.

The target of a further test is T9, 4H2649-AA.
T9 chain: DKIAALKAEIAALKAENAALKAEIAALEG
To be noted: mean of both orientations.

The target in another test is T10, 4H1864-AA.
T10 chain: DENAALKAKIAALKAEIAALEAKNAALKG
To be noted: mean of both orientations.

For the next test, the target named is T11, 4H3381-AA.
T11 chain: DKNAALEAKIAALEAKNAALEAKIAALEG
To be noted: mean of both orientations.

The next test deals with T12, 4H1877-AA.
T12 chain: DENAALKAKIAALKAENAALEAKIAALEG
The settings on record: mean of both orientations.

In a further test the target is T13, 4H1626-AA.
T13 chain: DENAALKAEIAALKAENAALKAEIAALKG

The target of another test is T14, 4H1478-AA.
T14 chain: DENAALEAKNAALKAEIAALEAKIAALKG
To be noted: mean of both orientations.

The target of another test is T15, 4H1579-AA.
T15 chain: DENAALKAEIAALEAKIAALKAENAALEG
The settings on record: mean of both orientations.

In the next test the target is T16, 4H3395-AA.
T16 chain: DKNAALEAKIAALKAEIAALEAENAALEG
To be noted: mean of both orientations.

The next test concerns the target T17, 4H1385-AA.
T17 chain: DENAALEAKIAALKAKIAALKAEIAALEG

For a further test, the target named is T18, 4H1513-AA.
T18 chain: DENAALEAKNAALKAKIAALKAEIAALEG
To be noted: mean of both orientations.

For a further test, the target named is T19, 4H3120-AA.
T19 chain: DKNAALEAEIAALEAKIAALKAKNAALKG
To be noted: mean of both orientations.

In another test the target is T20, O14-AA.
T20 chain: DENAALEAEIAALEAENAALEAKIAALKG
To be noted: mean of both orientations.

Another test addresses T21, O11-AA.
T21 chain: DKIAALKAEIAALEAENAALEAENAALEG
To be noted: mean of both orientations.

The target in another test is T22, 4H406-AA.
T22 chain: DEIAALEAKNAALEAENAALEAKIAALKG
To be noted: mean of both orientations.

In a further test the target is T23, 4H3001-AA.
T23 chain: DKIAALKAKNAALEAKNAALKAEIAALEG
The settings on record: mean of both orientations.

Regarding DENAALEAKIAALEAENAALKAKIAALKG [4H1310-AA], the interaction score was -1.18 with 4H2648-AA; -0.8 in the test with 4H171-AA; -1.55 in the test with 4H384-AA; -1.37 with 4H3753-AA; 1.17 in the test with 4H2389-AA; 1.18 with 4H1594-AA. In addition, the interaction score is 1.51 with 4H3413-AA; -0.878 with 4H2198-AA; 1.94 in the test with 4H2649-AA; -1.48 with 4H1864-AA; -1.23 in the test with 4H3381-AA; 1.5 with 4H1877-AA. Further, the interaction score is -0.373 with 4H1626-AA (mean of both orientations); -1.2 with 4H1478-AA; -1.2 with 4H1579-AA; -0.984 with 4H3395-AA; -1.04 with 4H1385-AA (mean of both orientations); -1.48 with 4H1513-AA. This molecule came in with an interaction score in the test with 4H3120-AA of -1.24.
With DENAALEAKIAALKAKIAALKAEIAALEG [4H1385-AA], the interaction score in the test with 4H171-AA is -0.131; in the test with 4H384-AA, -0.727; with 4H3753-AA, -0.82; with O14-AA, 2.08; in the test with 4H2389-AA, -1.15; with 4H2649-AA it was -1.29. Further, the interaction score in the test with 4H1864-AA was 0.56; with 4H3381-AA, -1.28; with 4H1877-AA it was -0.357; in the test with O11-AA, 0.214; in the test with 4H1626-AA (mean of both orientations) it was -1.57; in the test with 4H1478-AA it was 0.852. In addition, the interaction score with 4H1579-AA is -0.0818; with 4H3395-AA, 0.689; in the test with 4H1385-AA, 2.06; with 4H3120-AA, 0.706.
DENAALEAEIAALKAKNAALEAKIAALKG [4H1142-AA]: the interaction score is -0.52 with 4H2648-AA; -1.36 in the test with 4H171-AA; -1.72 in the test with 4H384-AA; -2.1 with 4H3753-AA; -0.327 with 4H2389-AA; 0.842 in the test with 4H1594-AA. Further, the interaction score in the test with 4H3413-AA is 0.554; with 4H2198-AA, -1.52; in the test with 4H2649-AA, 0.913; with 4H1864-AA, -1.38; with 4H3381-AA, -0.986; with 4H1877-AA, 1.48. The interaction score with 4H1626-AA (mean of both orientations) was -0.818; with 4H1478-AA, -0.804; in the test with 4H1579-AA, -1.39; with 4H3395-AA, -1.76; with 4H1385-AA it was -1.1; with 4H1513-AA, -1.67. Besides, in the test with 4H3120-AA, the interaction score was -1.55.
In the case of DENAALKAEIAALKAENAALKAEIAALKG [4H1626-AA], the interaction score in the test with 4H171-AA was -1.66; with 4H3753-AA it was -1.54; with 4H2389-AA, -1.4; with 4H406-AA, -1.8; with 4H3001-AA, -2.01; with 4H2649-AA, 0.931. For the same molecule, the interaction score in the test with 4H1864-AA is -1.36; in the test with 4H3381-AA it was -1.5; with 4H1877-AA it was -0.845; with 4H1626-AA, 1.63; with 4H3395-AA, -1.69; with 4H3120-AA it was -1.91.
As for DENAALEAKIAALKAEIAALEAKIAALKG [4H1350-AA], the interaction score with 4H384-AA is -0.758; with O14-AA, -0.655; in the test with O11-AA, -0.612; with 4H1385-AA (mean of both orientations), 2.18.
